These results are taken from article PMC10786891, “Massively parallel profiling of RNA-targeting CRISPR-Cas13d”.

As usually defined, the Kd is the constant that tells how readily two partners part at equilibrium.

Changes are numbered by the printed parent chain. Names may count otherwise.

T1: EsCas13d, nuclease-dead (Eubacterium siraeum, UniProt B0MS50, R295A;H300A;R849A;H854A)
T1 sequence: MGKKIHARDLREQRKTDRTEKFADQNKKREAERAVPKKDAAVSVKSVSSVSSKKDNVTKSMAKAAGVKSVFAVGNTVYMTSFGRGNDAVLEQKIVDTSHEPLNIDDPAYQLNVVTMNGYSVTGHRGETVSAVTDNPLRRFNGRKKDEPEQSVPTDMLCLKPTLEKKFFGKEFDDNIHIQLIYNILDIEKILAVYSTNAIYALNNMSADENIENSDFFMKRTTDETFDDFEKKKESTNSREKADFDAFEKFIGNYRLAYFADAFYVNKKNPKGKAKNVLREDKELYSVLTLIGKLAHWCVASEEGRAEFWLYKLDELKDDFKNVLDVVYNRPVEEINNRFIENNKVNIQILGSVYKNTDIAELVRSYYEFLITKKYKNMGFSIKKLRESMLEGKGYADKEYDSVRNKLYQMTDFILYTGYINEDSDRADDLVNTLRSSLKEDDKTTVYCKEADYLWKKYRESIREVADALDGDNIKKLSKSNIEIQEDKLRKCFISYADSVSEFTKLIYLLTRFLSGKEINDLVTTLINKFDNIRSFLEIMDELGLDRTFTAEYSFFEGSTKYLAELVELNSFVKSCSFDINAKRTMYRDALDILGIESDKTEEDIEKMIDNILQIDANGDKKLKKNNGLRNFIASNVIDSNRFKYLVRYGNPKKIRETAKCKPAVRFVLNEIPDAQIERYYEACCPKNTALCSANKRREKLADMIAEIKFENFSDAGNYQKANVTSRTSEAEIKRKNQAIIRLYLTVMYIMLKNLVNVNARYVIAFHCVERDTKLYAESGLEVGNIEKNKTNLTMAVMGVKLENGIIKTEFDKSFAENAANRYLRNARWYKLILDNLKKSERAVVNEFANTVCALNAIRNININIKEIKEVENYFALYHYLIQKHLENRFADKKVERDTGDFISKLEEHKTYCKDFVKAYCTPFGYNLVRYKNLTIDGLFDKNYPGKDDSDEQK

B1: target 3 G4A,A5C (mixed)
RNA 1: CACCCGUGCAAAAUUGCAGGGGUCUAAAACGACCUGAAUAUUUCAGAUCAAA
RNA 2: GGGAAUGGAUCCACAUCUACGAAUUCGUUUUUGAUCUGAAAUAUUCCAGUCUGCAGAUCGGAAGAGCACACGU
B2: target 3 insA 3' of 6,insC 3' of 4 (mixed)
RNA 1: B1 RNA 1
RNA 2: GGGAAUGGAUCCACAUCUACGAAUUCGUUUUUGAUCUGAAAUAUUCAAGCGUCUGCAGAUCGGAAGAGCACACGU
B3: target 3 U8G,U22A (mixed)
RNA 1: B1 RNA 1
RNA 2: B1 RNA 2 with U30A, U44G, C47A, A48G
B4: target 3 insC 3' of 5,insC 3' of 3 (mixed)
RNA 1: B1 RNA 1
RNA 2: B2 RNA 2 with A48C, C50G, G51C
B5: target 3 G4A,C6G (mixed)
RNA 1: B1 RNA 1
RNA 2: B1 RNA 2 with C46G, C47A
B6: target 3 insC 3' of 8,insC 3' of 3 (mixed)
RNA 1: B1 RNA 1
RNA 2: B2 RNA 2 with U45C, C46U, A47C, C50G, G51C
B7: target 3 insC 3' of 4,insG 3' of 2 (mixed)
RNA 1: B1 RNA 1
RNA 2: B2 RNA 2 with A48G, G49C, C50G, G51U, U52G
B8: target 3 U7A,U22C (mixed)
RNA 1: B1 RNA 1
RNA 2: B1 RNA 2 with U30C, U45A, C47A, A48G
B9: target 3 insG 3' of 9,insC 3' of 5 (mixed)
RNA 1: B1 RNA 1
RNA 2: B2 RNA 2 with U44G, C46U, A47C, G49C, C50G
B10: target 3 U22C (mixed)
RNA 1: B1 RNA 1
RNA 2: B1 RNA 2 with U30C, C47A, A48G
B11: target 3 U2G,C6A (mixed)
RNA 1: B1 RNA 1
RNA 2: B1 RNA 2 with C46A, C47A, A48G, U50G
B12: target 3 U2G,U7A (mixed)
RNA 1: B1 RNA 1
RNA 2: B1 RNA 2 with U45A, C47A, A48G, U50G
B13: target 3 insU 3' of 22,insU 3' of 4 (mixed)
RNA 1: B1 RNA 1
RNA 2: GGGAAUGGAUCCACAUCUACGAAUUCGUUUUUUGAUCUGAAAUAUUCAGUGUCUGCAGAUCGGAAGAGCACACGU
B14: target 3 insU 3' of 6,insU 3' of 4 (mixed)
RNA 1: B1 RNA 1
RNA 2: B2 RNA 2 with A47U, C50U
B15: target 3 insG 3' of 2,insC 3' of 2 (mixed)
RNA 1: B1 RNA 1
RNA 2: B2 RNA 2 with A48G, C50U, U52C
B16: target 3 C1G,U22C (mixed)
RNA 1: B1 RNA 1
RNA 2: B1 RNA 2 with U30C, C47A, A48G, C51G
B17: target 3 insG 3' of 7,insC 3' of 7 (mixed)
RNA 1: B1 RNA 1
RNA 2: B2 RNA 2 with C46G, A47C, A48C, G49A, C50G
B18: target 3 C1A,A9G (mixed)
RNA 1: B1 RNA 1
RNA 2: B1 RNA 2 with A43G, C47A, A48G, C51A
B19: target 3 insU 3' of 16,insU 3' of 3 (mixed)
RNA 1: B1 RNA 1
RNA 2: B13 RNA 2 with U33G, G34A, A35U, U36C, C37U, U50G, G51U
B20: target 3 U2A,G4C (mixed)
RNA 1: B1 RNA 1
RNA 2: B1 RNA 2 with C47A, A48C, U50A
B21: target 3 insG 3' of 6,insU 3' of 3 (mixed)
RNA 1: B1 RNA 1
RNA 2: B2 RNA 2 with A47G, C50G, G51U
B22: target 3 insG 3' of 6,insA 3' of 2 (mixed)
RNA 1: B1 RNA 1
RNA 2: B2 RNA 2 with A47G, C50G, G51U, U52A
B23: target 3 del21,del22 (mixed)
RNA 1: B1 RNA 1
RNA 2: GGGAAUGGAUCCACAUCUACGAAUUCGUUUGAUCUGAAAUAUUCAGGUCUGCAGAUCGGAAGAGCACACGU
B24: target 3 insU 3' of 9,insC 3' of 8 (mixed)
RNA 1: B1 RNA 1
RNA 2: B2 RNA 2 with A47U, A48C, G49A, C50G
B25: target 3 C16U,U22C (mixed)
RNA 1: B1 RNA 1
RNA 2: B1 RNA 2 with U30C, C36U, C47A, A48G
B26: target 3 A12C,U22C (mixed)
RNA 1: B1 RNA 1
RNA 2: B1 RNA 2 with U30C, A40C, C47A, A48G
B27: target 3 G4A,U22C (mixed)
RNA 1: B1 RNA 1
RNA 2: B1 RNA 2 with U30C, C47A
B28: target 3 insU 3' of 6,insG 3' of 5 (mixed)
RNA 1: B1 RNA 1
RNA 2: B2 RNA 2 with A47U, C50G
B29: target 3 insU 3' of 22,insA 3' of 2 (mixed)
RNA 1: B1 RNA 1
RNA 2: B13 RNA 2 with U50G, G51U, U52A
B30: target 1 C7U,U19C (mixed)
RNA 1: CACCCGUGCAAAAAUGCAGGGGUCUAAAACUGAGCGGAUAACCUCUCUAUGG
RNA 2: GGGAAUGGAUCCACAUCUACGAAUUCGUACCACAGAGAGGUUAUUCGCUCACCGAGAUCGGAAGAGCACACGU
B31: target 1 insU 3' of 20,insA 3' of 2 (mixed)
RNA 1: B30 RNA 1
RNA 2: GGGAAUGGAUCCACAUCUACGAAUUCGUACCAUUAGAGAGGUUAUCCGCUCAACCGAGAUCGGAAGAGCACACGU
B32: target 1 insA 3' of 10,insA 3' of 6 (mixed)
RNA 1: B30 RNA 1
RNA 2: GGGAAUGGAUCCACAUCUACGAAUUCGUACCAUAGAGAGGUUAAUCCAGCUCACCGAGAUCGGAAGAGCACACGU

The series has as its target T1, EsCas13d, nuclease-dead. Put plainly: crRNA (strand 1, pre-loaded); Mg2+; 40 mM Tris-HCl pH 7.5, 150 mM NaCl, 6 mM MgCl2, 1 mM DTT, 0.1% Tween-20, 0.2 mg/ml BSA; 25 C; 10 min per concentration, then washed. Particulars: tags: His6-TwinStrep-SUMO cleaved; N-terminal SNAP kept (SNAP-Surface 488); label: 3' end held by stalled T7 RNA polymerase.
Turning to B1, the Kd amounted to 99 ± 21 nM. Turning to B2, binding was put at a Kd of 8.4 ± 0.95 nM.

In turn, B3 showed a Kd of 72.5 ± 13.5 nM.

The molecule B4 had a Kd of 19.6 ± 1.9 nM. B5 registered a Kd of 42 ± 4.5 nM. Consider B6, for which binding was put at a Kd of 77 ± 23 nM. The figure for B7 is 50.5 ± 9.5 nM; for B8 it is 41 ± 6.5 nM; for B9 it is 80.5 ± 12.5 nM. B10 came in with a Kd of 13.8 ± 1.8 nM. To B11 belongs 11.3 ± 1.4 nM; to B12, 6.55 ± 0.85 nM; to B13, 4.9 ± 0.95 nM. To B14 belongs 6.95 ± 0.7 nM. On to B15, for which binding was put at a Kd of 68.5 ± 10.5 nM.

As for B16, the Kd worked out at 41 ± 8 nM. On to B17, for which binding was put at a Kd of 44.5 ± 5 nM.

As to B18, the Kd turned out to be 61 ± 16.5 nM. Turning to B19, the affinity, expressed as Kd, was 29 ± 5 nM. B20 showed a Kd of 5.05 ± 0.55 nM. For the molecule B21, the Kd is 6.95 ± 0.6 nM. The molecule B22 gave a Kd of 15.6 ± 1.85 nM. The molecule B23 registered a Kd of 13.4 ± 1.7 nM. Turning to B24, binding was characterised by a dissociation constant (Kd) of 81.5 ± 13 nM. As for B25, binding was characterised by a dissociation constant (Kd) of 81.5 ± 30 nM.

Take B26: binding was put at a Kd of 53 ± 20 nM. B27 registered a Kd of 7.05 ± 1 nM.

In turn, B28 had a Kd of 10.9 ± 0.9 nM. To B29 belongs 26.2 ± 2.5 nM; to B30, 23.5 ± 1.7 nM. B31 displayed a Kd of 12 ± 0.7 nM. B32 returned a Kd of 11.1 ± 0.7 nM.
